The source of these data is PMC4764128.

The assay has as its target Dup A502,Y503 KIT D4D5 fragment (human) (UniProt P10721). Briefly: SEC-MALS.

Turning to “Dup A502,Y503 KIT D4D5 fragment (from UniProt P10721 308-514) (domain or fragment)”, the Kd came to 730 µM.

The term Kd denotes a measure of binding affinity in units of concentration.
